Biological target: meditope-enabled trastuzumab Fab fragment
Assay: SPR

Chain of meditope-enabled trastuzumab Fab fragment (chain, as listed by the source, chain 1 of 2): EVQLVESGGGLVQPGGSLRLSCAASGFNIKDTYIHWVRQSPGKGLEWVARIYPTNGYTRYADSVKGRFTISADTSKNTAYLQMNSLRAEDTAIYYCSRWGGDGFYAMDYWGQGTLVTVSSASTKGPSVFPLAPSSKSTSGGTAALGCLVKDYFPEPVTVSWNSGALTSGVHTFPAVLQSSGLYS
Chain of meditope-enabled trastuzumab Fab fragment (chain, as listed by the source, chain 2 of 2): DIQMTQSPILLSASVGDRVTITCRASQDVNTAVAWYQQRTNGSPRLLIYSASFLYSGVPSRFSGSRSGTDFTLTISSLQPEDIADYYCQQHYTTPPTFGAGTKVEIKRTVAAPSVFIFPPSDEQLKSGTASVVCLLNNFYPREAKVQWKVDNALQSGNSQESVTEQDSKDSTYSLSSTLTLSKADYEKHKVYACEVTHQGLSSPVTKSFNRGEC

Kd: 1000 nM
Binder: CQFDLSTRRLKC (modifications not checked) [cQFD meditope]
